Experimental data taken from the Human Domainome abundance scans (Beltran et al. 2025).

B1: 1-phosphatidylinositol 4,5-bisphosphate phosphodiesterase gamma-2, residues 772 to 827; numbered along this chain, P16885 (parent)
chain: RTVKALYDYKAKRSDELSFCRGALIHNVSKEPGGWWKGDYGTRIQQYFPSNYVEDI

Variants of: B1
Test: abundance fitness (aPCA) (normalised: wild type 0, dead -1); higher = more abundant; growth selection in yeast, the domain comes from the species named
Details: Homo sapiens

Abundance fitness of substitutions, site by site:
Y47: C -0.401 | Q -0.167 | I -0.607 | N -0.256 | H -0.437 | F -0.051 | E -0.672 | D -0.763
F48: P -0.923 | M -0.911 | E -1.05 | T -0.952 | L -0.541 | W -0.848 | N -0.437 | A -1.02 | S -0.872 | R -0.982 | V -0.939
W36: D -0.576 | M -0.108 | I -0.611 | S 0.22 | K -0.705 | A -0.214 | R -0.724 | C -0.108 | F -0.308 | Q -0.839 | Y -0.368 | E -0.809 | G -0.58 | L -0.095 | T -0.89
W35: L -0.058 | V -0.29 | T -0.281 | P -0.616 | E -0.217 | G -0.625 | R 0.089 | F 0.044 | K -0.58 | I -0.611 | A -0.383 | D -0.381 | M -0.225 | S -0.273
Q45: K -0.51 | W -0.916 | G -0.278 | A -0.335 | I -0.658 | H -0.458 | L -0.923 | Y -0.732 | T -0.651 | R -0.92 | V -0.942 | D -0.753 | N -0.273 | C -0.33 | S -0.472 | E -0.819 | P -0.699
R43: I -0.377 | S -0.199 | P -0.909 | M -0.049 | E -0.033 | T -0.269 | L -0.139 | F -0.359 | H 0.022 | N 0.097 | D -0.243 | W -0.167 | K -0.018 | Y -0.228 | V -0.349 | Q -0.039 | A 0.015 | G -0.01 | C -0.111
